In patent publication US20200317768A1 (published 2020):

T1: cynomolgus monkey FcγRIIb extracellular domain, His-tagged (cynomolgus monkey)
T1 construct: also called cyno FcgRIIb; cynoFcγRIIb; not shown: His-tag added to the C-terminus
T1 chain: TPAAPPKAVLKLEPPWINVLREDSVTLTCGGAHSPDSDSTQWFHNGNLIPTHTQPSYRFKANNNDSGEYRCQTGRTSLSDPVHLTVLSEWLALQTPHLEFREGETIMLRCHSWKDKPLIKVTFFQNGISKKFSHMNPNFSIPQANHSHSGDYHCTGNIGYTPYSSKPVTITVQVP

T2: human FcγRIIaR extracellular domain, His-tagged (human, UniProt P12318 34-217)
T2 construct: also called human FcgRIIaR; FcγRIIa (type R); not shown: His-tag added to the C-terminus
T2 chain: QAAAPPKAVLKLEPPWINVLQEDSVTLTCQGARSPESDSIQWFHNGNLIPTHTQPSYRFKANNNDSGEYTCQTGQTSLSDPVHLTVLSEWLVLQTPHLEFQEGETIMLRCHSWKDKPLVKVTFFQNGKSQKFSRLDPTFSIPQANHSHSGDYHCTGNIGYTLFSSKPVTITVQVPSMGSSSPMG

T3: cynomolgus monkey FcγRIIa1 extracellular domain, His-tagged (cynomolgus monkey)
T3 construct: also called cyno FcgRIIa1; cynoFcγRIIa1; not shown: His-tag added to the C-terminus
T3 chain: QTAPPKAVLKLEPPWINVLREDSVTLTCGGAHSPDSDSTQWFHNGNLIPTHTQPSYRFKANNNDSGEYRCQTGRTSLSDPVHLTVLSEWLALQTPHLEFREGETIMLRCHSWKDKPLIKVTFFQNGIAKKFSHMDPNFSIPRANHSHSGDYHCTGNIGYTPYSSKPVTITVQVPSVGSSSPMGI

T4: cynomolgus monkey FcγRIIa3 extracellular domain, His-tagged (cynomolgus monkey)
T4 construct: also called cyno FcgRIIa3; cynoFcγRIIa3; not shown: His-tag added to the C-terminus
T4 chain: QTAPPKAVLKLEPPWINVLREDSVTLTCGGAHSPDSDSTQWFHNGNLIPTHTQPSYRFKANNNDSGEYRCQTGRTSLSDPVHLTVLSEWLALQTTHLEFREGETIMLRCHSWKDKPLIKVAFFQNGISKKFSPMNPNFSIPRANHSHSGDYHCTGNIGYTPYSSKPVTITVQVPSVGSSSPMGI

T5: human FcγRIIb extracellular domain, His-tagged (human, UniProt P31994 43-217)
T5 construct: also called human FcgRIIb; not shown: His-tag added to the C-terminus
T5 sequence: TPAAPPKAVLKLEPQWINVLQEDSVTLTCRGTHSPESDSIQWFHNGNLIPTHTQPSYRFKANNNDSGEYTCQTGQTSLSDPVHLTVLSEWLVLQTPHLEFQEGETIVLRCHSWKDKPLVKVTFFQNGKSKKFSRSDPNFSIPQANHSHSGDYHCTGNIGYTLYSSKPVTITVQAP


Columns and labels:
Assay in all cases: SPR (BIACORE), antibody captured, FcγR as analyte, 25°C
[1] = molecular target: T1, cynomolgus monkey FcγRIIb extracellular …
Procedure: (§1) The kinetic analysis of interactions between these antibodies and FcγR was carried out using BIACORE® T200 or BIACORE® 4000 (GE Healthcare). HBS-EP+ (GE Healthcare) was used as the running buffer, and the measurement temperature was set to 25° C. A chip produced by immobilizing Protein A. Protein A/G or mouse anti-human IgG kappa light chain (BD Biosciences) onto a Series S Sensor Chip CM4 or CM5 (GE Healthcare) by the amine-coupling method was used. […] After the measurement, the antibody captured on the chip was washed off by allowing reaction with 10 mM glycine-HCl, pH1.5 and 25 mM NaOH so that the chip was regenerated and used repeatedly. The sensorgrams obtained as measurement results were analyzed by the 1:1 Langmuir binding model using the BIACORE® Evaluation Software to calculate the binding rate constant ka (L/mol/s) and dissociation rate constant kd (l/s), and the dissociation constant KD (mol/L) was calculated from these values. […] Regarding such interactions, KD values were calculated using the following 1:1 binding model described in BIACORE® T100 Software Handbook BR1006-48 Edition AE.
(§2) The behavior of interacting molecules according to the 1:1 binding model on BIACORE® can be described by Equation 1: Req=C·R max/(KD+C)+RI, wherein, Req is a plot of steady-state binding levels to analyte concentration. C is concentration, RI is bulk refractive index contribution in the sample, and Rmax is analyte binding capacity of the surface. When this equation is rearranged, KD can be expressed as Equation 2: KD=C·Rmax/(Req−RI)−C. KD can be calculated by substituting the values of Rmax, RI, and C into Equation 1 or Equation 2. From the current measurement conditions, RI=0, C=2 μmol/L can be used.

[2] = molecular target: T2, human FcγRIIaR extracellular domain, …
Procedure: as §1, §2

[3] = molecular target: T3, cynomolgus monkey FcγRIIa1 …
Procedure: as §1, §2

[4] = molecular target: T4, cynomolgus monkey FcγRIIa3 …
Procedure: as §1, §2

[5] = molecular target: T5, human FcγRIIb extracellular domain, …
Procedure: as §1, §2

[6] = molecular target: T6, cynomolgus monkey FcγRIIIaS extracellular domain, His-tagged (cynomolgus monkey, UniProt A3RFZ7 21-206 (rhesus entry))
T6 construct: also called cyno FcgRIIIaS; cynoFcγRIIIaS; not shown: His-tag added to the C-terminus
Procedure: as §1, §2

Row | Kd [1] | Kd [2] | Kd [3] | Kd [4] | Kd [5] | Kd [6] | Binder
1 | 1 µM | 0.71 µM | 3.2 µM | 7.3 µM | 3.5 µM | 0.78 µM | M103205H795-MY263/M103202L889-SK1 (antibody, human IgG1, kappa, copies: 2 + 2) heavy: QVTLKESGPVLVKPTETLTLTCTVSGIDLSHDDISWVRQAPGKGLEWVGIISYAGSTYYASWAKGRLTISKDTSKNQVVLTMTNMDPVDTATYYCARGVPAYSHGGDLWGQGTLVTVSSASTKGPSVFPLAPSSKSTSGGTAALGCLVKDYFPEPVTVSWNSGALTSGVHTFPAVLQSSGLYSLSSVVTVPSSSLGTQTYICNVNHKPSNTKVDKKVEPKSCDKTHTCPPCPAPELLQGPSVFLFPPKPKDTLMISRTPEVTCVVVDVSDEDPEVKFNWYVDGVEVHNAKTKPREEQYNSTYRVVSVLTVLHQDWLNGKEYKCKVSNKALPKPIEKTISKAKGQPREPQVYTLPPSREEMTKNQVSLTCLVKGFYPSDIAVEWESNGQPENNYKTTPPVLDSDGSFFLYSKLTVDKSRWQQGNVFSCSVMHEALHNHYTQKSLSLSP light: DIVMTQSPATLSLSPGERATLSCTSSQSVYHANWLSWFQQKPGQPPKLLIYWASTLAYGVPSRFSGSGSGTDFTLTISSLQPEDAATYYCAGGYGGGRYAFGQGTKVEIKRTVAAPSVFIFPPSDEQLKSGTASVVCLLNNFYPREAKVQWKVDNALQSGNSQESVTEQDSKDSTYSLSSTLTLSKADYEKHKVYACEVTHQGLSSPVTKSFNRGEC
2 | 0.59 µM | 0.44 µM | 2.2 µM | 4.8 µM | 2.2 µM | 2 µM | M103205H795-MY265/M103202L889-SK1 (antibody, human IgG1, kappa, copies: 2 + 2) heavy: QVTLKESGPVLVKPTETLTLTCTVSGIDLSHDDISWVRQAPGKGLEWVGIISYAGSTYYASWAKGRLTISKDTSKNQVVLTMTNMDPVDTATYYCARGVPAYSHGGDLWGQGTLVTVSSASTKGPSVFPLAPSSKSTSGGTAALGCLVKDYFPEPVTVSWNSGALTSGVHTFPAVLQSSGLYSLSSVVTVPSSSLGTQTYICNVNHKPSNTKVDKKVEPKSCDKTHTCPPCPAPELLTGPSVFLFPPKPKDTLMISRTPEVTCVVVDVSDEDPEVKFNWYVDGVEVHNAKTKPREEQYNSTYRVVSVLTVLHQDWLNGKEYKCKVSNKALPKPIEKTISKAKGQPREPQVYTLPPSREEMTKNQVSLTCLVKGFYPSDIAVEWESNGQPENNYKTTPPVLDSDGSFFLYSKLTVDKSRWQQGNVFSCSVMHEALHNHYTQKSLSLSP light: DIVMTQSPATLSLSPGERATLSCTSSQSVYHANWLSWFQQKPGQPPKLLIYWASTLAYGVPSRFSGSGSGTDFTLTISSLQPEDAATYYCAGGYGGGRYAFGQGTKVEIKRTVAAPSVFIFPPSDEQLKSGTASVVCLLNNFYPREAKVQWKVDNALQSGNSQESVTEQDSKDSTYSLSSTLTLSKADYEKHKVYACEVTHQGLSSPVTKSFNRGEC
3 | 2.8 µM | 2.3 µM | 5.6 µM | 16 µM | 12 µM | 3.7 µM | M103205H795-MY264/M103202L889-SK1 (antibody, human IgG1, kappa, copies: 2 + 2) heavy: QVTLKESGPVLVKPTETLTLTCTVSGIDLSHDDISWVRQAPGKGLEWVGIISYAGSTYYASWAKGRLTISKDTSKNQVVLTMTNMDPVDTATYYCARGVPAYSHGGDLWGQGTLVTVSSASTKGPSVFPLAPSSKSTSGGTAALGCLVKDYFPEPVTVSWNSGALTSGVHTFPAVLQSSGLYSLSSVVTVPSSSLGTQTYICNVNHKPSNTKVDKKVEPKSCDKTHTCPPCPAPELLLGPSVFLFPPKPKDTLMISRTPEVTCVVVDVSDEDPEVKFNWYVDGVEVHNAKTKPREEQYNSTYRVVSVLTVLHQDWLNGKEYKCKVSNKALPKPIEKTISKAKGQPREPQVYTLPPSREEMTKNQVSLTCLVKGFYPSDIAVEWESNGQPENNYKTTPPVLDSDGSFFLYSKLTVDKSRWQQGNVFSCSVMHEALHNHYTQKSLSLSP light: DIVMTQSPATLSLSPGERATLSCTSSQSVYHANWLSWFQQKPGQPPKLLIYWASTLAYGVPSRFSGSGSGTDFTLTISSLQPEDAATYYCAGGYGGGRYAFGQGTKVEIKRTVAAPSVFIFPPSDEQLKSGTASVVCLLNNFYPREAKVQWKVDNALQSGNSQESVTEQDSKDSTYSLSSTLTLSKADYEKHKVYACEVTHQGLSSPVTKSFNRGEC
